The values that follow come from patent US20090275047A1 (published 2009).

The data set concerns the molecule itself. The experiment in a line: X-ray crystal structure; crystal lattice contact between symmetry-related molecules.

B1: human soluble adenylate cyclase catalytic domain, construct solAC-2056 (M1-V469 with non-cleavable C-terminal His6 tag) (enzyme)
chain: MNTPKEEFQDWPIVRIAAHLPDLIVYGHFSPERPFMDYFDGVLMFVDISGFTAMTEKFSSAMYMDRGAEQLVEILNYHISAIVEKVLIFGGDILKFAGDALLALWRVERKQLKNIITVVIKCSLEIHGLFETQEWEEGLDIRVKIGLAAGHISMLVFGDETHSHFLVIGQAVDDVRLAQNMAQMNDVILSPNCWQLCDRSMIEIESVPDQRAVKVNFLKPPPNFNFDEFFTKCTTFMHYYPSGEHKNLLRLACTLKPDPELEMSLQKYVMESILKQIDNKQLQGYLSELRPVTIVFVNLMFEDQDKAEEIGPAIQDAYMHITSVLKIFQGQINKVFMFDKGCSFLCVFGFPGEKVPDELTHALECAMDIFDFCSQVHKIQTVSIGVASGIVFCGIVGHTVRHEYTVIGQKVNLAARMMMYYPGIVTCDSVTYNGSNLPAYFFKELPKKVMKGVADSGPLYQYWGRTEKVHHHHHH
modifications: possible acetylation of the N-terminus at Met1 (electron density peak, not modelled)
notes: Expressed in Hi 5 insect cells and crystallised in space group P63; The protein-protein contact recorded is between symmetry-related copies of this molecule in the crystal; also called construct 2056; solAC catalytic domain
Turning to B1, the binding result is “binds”.
